According to US9180187B2, “Medicament for treating and/or preventing cancer” (TORAY INDUSTRIES, INC., priority 2010, dated 2015):

What was measured:
[1] = system: MCF-7 human breast cancer cell line; test: In vivo combination therapy in tumor-bearing nude mice transplanted with MCF-7; conditions: experimental section 2 (anti-CAPRIN-1 antibody = #9, 5 mg/kg i.p.), day 26, mouse PBMC given to all groups
Description: IgG2b (R&D systems, catalog No. MAB11291)) were administered in combination, a group to which an antitumor agent and anti-CAPRIN-1 monoclonal antibody were administered in combination, and a group to which control (PBS(−) was administered. In addition, mouse PBMC was administered to all the administration groups. […] PBMC separated from Balb/c mouse spleen was intravenously administered to each mouse at 1×10^7 cells/0.2 mL (RPMI1640) on days 0, 8, and 15 after the start of the experiment. […] PBMC separated from Balb/c mouse spleen was intravenously administered to each mouse at 1×10^7 cells/0.2 mL (RPMI1640) on days 0, 8, and 15 after the start of the experiment. Paclitaxel was intraperitoneally administered to each of 5 tumor-bearing mice at 15 mg/kg/shot on days 0 and 3 after the start of the experiment. PBMC separated from Balb/c mouse spleen was intravenously administered to each mouse at 1×10^7 cells/0.2 mL (RPMI1640) on days 0, 8, and 15 after the start of the experiment. Docetaxel was intraperitoneally administered to each of 5 tumor-bearing mice at 10 mg/kg/shot on days 0 and 3 after the start of the experiment. PBMC separated from Balb/c mouse spleen was intravenously administered to each mouse at 1×10^7 cells/0.2 mL (RPMI1640) on days 0, 8, and 15 after the start of the experiment. […]

[2] = system: human breast cancer cell line MDA-MB-157; test: ADCC activity, chromium-51 release; assay type: cell-based; conditions: 1 μg antibody, mouse lymphocytes 2×10^5 cells, 10^3 target cells, 4 hours
Description: The above-selected anti-CAPRIN-1 monoclonal antibodies #1 to #11 were evaluated for their cytotoxic activities against cancer cells (ADCC activity). Hybridomas producing the monoclonal antibodies #1 to #11 were each cultured using hybridoma SFM medium (Invitrogen). The thus obtained supernatant was purified using Hitrap ProteinA Sepharose FF (GE HealthCare), replaced with PBS(−), and then filtered through 0.22 μm filter (Millipore). The obtained filtrates were used as antibodies for assay. The human breast cancer cell line MDA-MB-157 (10^6 cells) was collected in a 50-ml centrifuge tube, to which 100 μCi chromium(Cr)-51 was then added, and incubated at 37° C. for 2 hours. Subsequently, the cells were washed 3 times with RPMI1640 medium containing 10% FBS, and then dispensed into each well of a 96-well V-bottom plate at 10^3 cells per well. The thus obtained cells are used as target cell. The above purified antibodies (1 μg each) were added to the cells. Separately, mouse lymphocytes separated from the mouse spleen were further added (2×10^5 cells) and then cultured under conditions of 37° C. and 5% CO2 for 4 hours. After culture, the amount of chromium(Cr)-51 released from cytotoxically impaired tumor cells in a culture supernatant was measured, so that the ADCC activity of each anti-CAPRIN-1 antibody against cancer cells was calculated. […] On the other hand, similar procedures were performed using the monoclonal antibodies (which were prepared in Example 2) reactive with the CAPRIN-1 protein itself, but not reactive with the surface of cancer cells, no cytotoxic activity was observed (see FIG. 1). […] Similarly, the anti-CAPRIN-1 antibodies were examined for ADCC activity against other human cancer cell lines including glioma cell lines (T98G and U373), lung cancer cell lines (A549 and QG56), renal cancer cell lines (Caki-1 and ACHN), a uterine cervix cancer cell line (SW756), a bladder cancer cell line (T24), an esophageal cancer cell line (KYSE180), gastric cancer cell lines (MNK28 and MNK45), a colorectal cancer cell line (SW480), a leukemia cell line (AML5), and a lymphoma cell line (Ramos).

B1: monoclonal antibody #9: mouse anti-CAPRIN-1 monoclonal antibody; heavy chain variable region SEQ ID NO: 103, light chain variable region SEQ ID NO: 107 (antibody, listed as Mus musculus, V domains shown)
VH: PRASLGVSETLLCTSGFTFTDYYMSWVRQPPGKALEWLGFIRNKANGYTTEYSASVKGRFTISRDNSQSILYLQMNTLRAEDSATYYCARANWAFDYWGQGTTVTVSSK
VL: SGDRVSLSCRASQSISNYLHWYQQKSHESPRLLIKYASQSISGIPSRFSGSGSGTDFTLSINSVETEDFGMYFCQQSNSWPYTFGGGTKLEIKQ
tumor volume relative to PBS(−) control group designated at 100% [1]: about 45% | ADCC activity (cytotoxic activity) against MDA-MB-157 [2]: 32.4%
